One series relates to O=C(O)C[C@H](O)C(=O)O. The series is described as follows: crystal structure. The format is biochemical, Leishmania major. As to conditions: [4Fe-4S] cluster active site, same binding mode as wild type.
Another series addresses T1, LmFH-2-R173A (Leishmania major, UniProt E9AE57, R173A).
T1 sequence (E9AE57 1-568 R173A): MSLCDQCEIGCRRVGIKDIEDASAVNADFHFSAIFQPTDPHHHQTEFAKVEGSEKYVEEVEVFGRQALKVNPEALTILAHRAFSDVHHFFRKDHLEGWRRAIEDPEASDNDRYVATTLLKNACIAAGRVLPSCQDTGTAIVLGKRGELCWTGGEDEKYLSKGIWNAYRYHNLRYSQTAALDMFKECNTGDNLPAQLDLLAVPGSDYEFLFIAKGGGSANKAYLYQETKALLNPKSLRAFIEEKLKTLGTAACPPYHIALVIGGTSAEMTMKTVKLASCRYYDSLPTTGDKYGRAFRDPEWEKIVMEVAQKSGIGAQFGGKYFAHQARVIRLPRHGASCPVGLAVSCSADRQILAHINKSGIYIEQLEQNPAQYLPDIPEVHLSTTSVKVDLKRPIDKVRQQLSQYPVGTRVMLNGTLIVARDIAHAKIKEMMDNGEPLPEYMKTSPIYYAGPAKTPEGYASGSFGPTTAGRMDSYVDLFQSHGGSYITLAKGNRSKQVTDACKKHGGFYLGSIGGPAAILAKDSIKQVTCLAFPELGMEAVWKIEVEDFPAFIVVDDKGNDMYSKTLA

The target in series [1] is T2, LmFH-2 (cytosolic class I fumarate hydratase) (Leishmania major, UniProt E9AE57).
T2 sequence (E9AE57 1-568): T1 sequence (E9AE57 1-568 R173A)
The series is described as follows: crystal structure at […] Å. The class given is biochemical.

As usually defined, the Km is the substrate concentration at which the rate is half of its maximum. Usually Vmax stands for the top rate of the reaction or transport when substrate is in excess. By kcat is commonly meant the number of substrate molecules converted per active site and unit of time at saturation. The kcat/Km is the turnover number divided by the Michaelis constant. Regarding LmFH-2-T467A (Leishmania major; T467A), in the series with O=C(O)C[C@H](O)C(=O)O, the Km worked out at 4.4 ± 0.2 mM, the Vmax came out at 0.047 µmol/min/mg, the kcat was found to be 0.052 ± 0.001 s⁻¹ and the kcat/Km turned out to be 12 ± 1 M⁻¹ s⁻¹.
Regarding LmFH-2-R471A (Leishmania major; R471A), in the series on O=C(O)C[C@H](O)C(=O)O, the Km amounted to 4.3 ± 0.2 mM, the Vmax is 0.034 µmol/min/mg, the kcat is 0.038 ± 0.001 s⁻¹ and the kcat/Km came out at 9 ± 1 M⁻¹ s⁻¹.
In the case of LmFH-2-R421A (Leishmania major; R421A), in the series with O=C(O)C[C@H](O)C(=O)O, the Km worked out at 4.1 ± 0.3 mM, the Vmax came out at 0.13 µmol/min/mg, the kcat came out at 0.144 ± 0.002 s⁻¹ and the kcat/Km was found to be 35 ± 3 M⁻¹ s⁻¹.
Consider `O=C(O)/C=C/C(=O)O` [fumarate], for which the Km at LmFH-2-R173A amounted to 2.6 ± 0.6 mM.
With LmFH-2-H334A (Leishmania major; H334A), in the series with O=C(O)C[C@H](O)C(=O)O, the Km amounted to 4.6 ± 0.1 mM, the Vmax amounted to 52 µmol/min/mg, the kcat was 57.6 ± 0.4 s⁻¹ and the kcat/Km came out at 12500 ± 400 M⁻¹ s⁻¹.
What is called IC50 is the concentration at which inhibition is half-maximal. A lower IC50 goes with greater potency in that assay. Consider `O=C(O)CCC(=O)O` [succinate], for which it took 34.2 ± 1.2 mM to reach half-maximal inhibition in series [1] (IC50).

The values are drawn from publication PMC7065722 (Biochemistry, 2019).
